# Assay results reported in US20220402983A1 (Janssen / Centocor, published 2022).
# *1 amine or outer side, *2 acyl side, *3 side chain or, on linkers, in order; H or OH if unused. Bridges are numbered along the chain shown (N, C = ends). [ ]: non-standard residue; d: D form. The star is where a group is joined. dPhe(3-NH2) = D-3-aminophenylalanine, O=C([C@@H](Cc1cccc(N[*:3])c1)N[*:1])[*:2]; Trp(7-Me) = Cc1cccc2c(C[C@H](N)C(=O)O)c[nH]c12; dPhe(4-NH2) = Nc1ccc(C[C@@H](N)C(=O)O)cc1; Phe(4-NH2) = Nc1ccc(C[C@H](N)C(=O)O)cc1; 2Nal = N[C@@H](Cc1ccc2ccccc2c1)C(=O)O; (N-benzyl)Asn = N-benzyl-asparagine; AEF = NCCOc1ccc(C[C@H](N)C(=O)O)cc1; αMeF = C[C@](N)(Cc1ccccc1)C(=O)O; 3Pal = N[C@@H](Cc1cccnc1)C(=O)O; Cit = NC(=O)NCCC[C@H](N)C(=O)O; αMeL = CC(C)C[C@](C)(N)C(=O)O; Pen = CC(C)(S)[C@H](N)C(=O)O; αMeK = C[C@](N)(CCCCN)C(=O)O; αMeC = C[C@](N)(CS)C(=O)O; Thp = NC1(C(=O)O)CCOCC1; Tfa = O=C(C(F)(F)F)*
# T1: human IL-23R (interleukin-23 receptor) (human, UniProt Q5VWK5 24-629)
# T1 sequence (looked up): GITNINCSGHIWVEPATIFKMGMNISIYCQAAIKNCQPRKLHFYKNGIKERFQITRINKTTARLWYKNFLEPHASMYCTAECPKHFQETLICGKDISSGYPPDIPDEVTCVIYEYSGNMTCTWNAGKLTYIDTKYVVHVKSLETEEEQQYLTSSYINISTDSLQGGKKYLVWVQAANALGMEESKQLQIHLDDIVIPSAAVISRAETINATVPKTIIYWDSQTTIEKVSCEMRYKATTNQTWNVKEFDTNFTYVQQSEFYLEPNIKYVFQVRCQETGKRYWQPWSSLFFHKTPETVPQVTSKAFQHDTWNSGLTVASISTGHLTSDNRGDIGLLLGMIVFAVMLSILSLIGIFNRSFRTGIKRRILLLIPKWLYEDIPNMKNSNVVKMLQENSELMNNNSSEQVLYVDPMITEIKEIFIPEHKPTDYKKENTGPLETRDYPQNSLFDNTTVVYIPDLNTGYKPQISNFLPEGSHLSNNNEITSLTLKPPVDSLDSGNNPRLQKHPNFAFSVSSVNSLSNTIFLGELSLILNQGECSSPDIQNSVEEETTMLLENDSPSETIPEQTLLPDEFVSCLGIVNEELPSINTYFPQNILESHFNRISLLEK
# Molecular target: T1, human IL-23R (interleukin-23 receptor)
# Test: cell-based or functional assay
Binder,PBMC pSTAT3 IC50 (nM),"pStat3 HTRF (nM), IC50, DB cells IL23R pSTAT3 cell assay [nM]"
Ac-[dR][Pen]QTWQ[Pen][AEF][2Nal][Thp]EN[(N-benzyl)Asn]-NH2 (disulfide 2-7) [Compound No. 110],700,
Ac-[Pen]NTWK(Tfa)[Pen][AEF][2Nal][αMeK]K(Ac)N[Thp]-NH2 (disulfide 1-6; SMILES CC(=O)NCCCC[C@H](NC(=O)[C@](C)(CCCCN)NC(=O)[C@H](Cc1ccc2ccccc2c1)NC(=O)[C@H](Cc1ccc(OCCN)cc1)NC(=O)[C@H]1NC(=O)[C@H](CCCCNC(=O)C(F)(F)F)NC(=O)[C@H](Cc2c[nH]c3ccccc23)NC(=O)[C@H]([C@@H](C)O)NC(=O)[C@H](CC(N)=O)NC(=O)[C@@H](NC(C)=O)C(C)(C)SSC1(C)C)C(=O)N[C@@H](CC(N)=O)C(=O)NC1(C(N)=O)CCOCC1) [Compound No. 103],57,
Ac-[Pen]NT[Trp(7-Me)][Cit][Pen][AEF][2Nal][αMeL]K(Ac)N[Thp]-NH2 (disulfide 1-6; SMILES CC(=O)NCCCC[C@H](NC(=O)[C@](C)(CC(C)C)NC(=O)[C@H](Cc1ccc2ccccc2c1)NC(=O)[C@H](Cc1ccc(OCCN)cc1)NC(=O)[C@H]1NC(=O)[C@H](CCCNC(N)=O)NC(=O)[C@H](Cc2c[nH]c3c(C)cccc23)NC(=O)[C@H]([C@@H](C)O)NC(=O)[C@H](CC(N)=O)NC(=O)[C@@H](NC(C)=O)C(C)(C)SSC1(C)C)C(=O)N[C@@H](CC(N)=O)C(=O)NC1(C(N)=O)CCOCC1) [Compound No. 108],5.1,
Ac-[Pen]NT[Trp(7-Me)]K(Ac)[Pen][AEF][2Nal][αMeK]K(Ac)N[Thp][dY]-NH2 (disulfide 1-6; SMILES CC(=O)NCCCC[C@@H]1NC(=O)[C@H](Cc2c[nH]c3c(C)cccc23)NC(=O)[C@H]([C@@H](C)O)NC(=O)[C@H](CC(N)=O)NC(=O)[C@@H](NC(C)=O)C(C)(C)SSC(C)(C)[C@@H](C(=O)N[C@@H](Cc2ccc(OCCN)cc2)C(=O)N[C@@H](Cc2ccc3ccccc3c2)C(=O)N[C@@](C)(CCCCN)C(=O)N[C@@H](CCCCNC(C)=O)C(=O)N[C@@H](CC(N)=O)C(=O)NC2(C(=O)N[C@H](Cc3ccc(O)cc3)C(N)=O)CCOCC2)NC1=O) [Compound No. 107],11,
Ac-[dR][Pen]NTWK(Ac)[Pen][AEF][2Nal][Thp]EN[αMeF]-NH2 (disulfide 2-7; SMILES CC(=O)NCCCC[C@@H]1NC(=O)[C@H](Cc2c[nH]c3ccccc23)NC(=O)[C@H]([C@@H](C)O)NC(=O)[C@H](CC(N)=O)NC(=O)[C@@H](NC(=O)[C@@H](CCCNC(=N)N)NC(C)=O)C(C)(C)SSC(C)(C)[C@@H](C(=O)N[C@@H](Cc2ccc(OCCN)cc2)C(=O)N[C@@H](Cc2ccc3ccccc3c2)C(=O)NC2(C(=O)N[C@@H](CCC(=O)O)C(=O)N[C@@H](CC(N)=O)C(=O)N[C@@](C)(Cc3ccccc3)C(N)=O)CCOCC2)NC1=O) [Compound No. 106],13,
Ac-[Pen]NT[Trp(7-Me)]K(Ac)[Pen][AEF][2Nal][αMeK]K(Ac)N[Phe(4-NH2)]-NH2 (disulfide 1-6; SMILES CC(=O)NCCCC[C@@H]1NC(=O)[C@H](Cc2c[nH]c3c(C)cccc23)NC(=O)[C@H]([C@@H](C)O)NC(=O)[C@H](CC(N)=O)NC(=O)[C@@H](NC(C)=O)C(C)(C)SSC(C)(C)[C@@H](C(=O)N[C@@H](Cc2ccc(OCCN)cc2)C(=O)N[C@@H](Cc2ccc3ccccc3c2)C(=O)N[C@@](C)(CCCCN)C(=O)N[C@@H](CCCCNC(C)=O)C(=O)N[C@@H](CC(N)=O)C(=O)N[C@@H](Cc2ccc(N)cc2)C(N)=O)NC1=O) [Compound No. 112],,2.09
Ac-[Pen]NT[Trp(7-Me)][Cit][Pen][AEF][2Nal][αMeL]K(Ac)N[αMeF]-NH2 (disulfide 1-6; SMILES CC(=O)NCCCC[C@H](NC(=O)[C@](C)(CC(C)C)NC(=O)[C@H](Cc1ccc2ccccc2c1)NC(=O)[C@H](Cc1ccc(OCCN)cc1)NC(=O)[C@H]1NC(=O)[C@H](CCCNC(N)=O)NC(=O)[C@H](Cc2c[nH]c3c(C)cccc23)NC(=O)[C@H]([C@@H](C)O)NC(=O)[C@H](CC(N)=O)NC(=O)[C@@H](NC(C)=O)C(C)(C)SSC1(C)C)C(=O)N[C@@H](CC(N)=O)C(=O)N[C@@](C)(Cc1ccccc1)C(N)=O) [Compound No. 104],8.2,
Ac-[dR][Pen]NTWK(Ac)[Pen][AEF][2Nal][Thp]EN[Thp]-NH2 (disulfide 2-7; SMILES CC(=O)NCCCC[C@@H]1NC(=O)[C@H](Cc2c[nH]c3ccccc23)NC(=O)[C@H]([C@@H](C)O)NC(=O)[C@H](CC(N)=O)NC(=O)[C@@H](NC(=O)[C@@H](CCCNC(=N)N)NC(C)=O)C(C)(C)SSC(C)(C)[C@@H](C(=O)N[C@@H](Cc2ccc(OCCN)cc2)C(=O)N[C@@H](Cc2ccc3ccccc3c2)C(=O)NC2(C(=O)N[C@@H](CCC(=O)O)C(=O)N[C@@H](CC(N)=O)C(=O)NC3(C(N)=O)CCOCC3)CCOCC2)NC1=O) [Compound No. 105],2.2,

# Further lines, results first:
PBMC pSTAT3 IC50 (nM),"pStat3 HTRF (nM), IC50, DB cells IL23R pSTAT3 cell assay [nM]",Binder
7.1,,Ac-CNT[Trp(7-Me)]K(Ac)[αMeC][AEF][2Nal][αMeK]K(Ac)N[Thp]-NH2 (disulfide 1-6; SMILES CC(=O)NCCCC[C@@H]1NC(=O)[C@H](Cc2c[nH]c3c(C)cccc23)NC(=O)[C@H]([C@@H](C)O)NC(=O)[C@H](CC(N)=O)NC(=O)[C@@H](NC(C)=O)CSSC[C@@](C)(C(=O)N[C@@H](Cc2ccc(OCCN)cc2)C(=O)N[C@@H](Cc2ccc3ccccc3c2)C(=O)N[C@@](C)(CCCCN)C(=O)N[C@@H](CCCCNC(C)=O)C(=O)N[C@@H](CC(N)=O)C(=O)NC2(C(N)=O)CCOCC2)NC1=O) [Compound No. 117]
4.9,,CNTXQCFXKKNX (Ac-[Cys]-N-T-[W(7-Me)]-Q-[aMeCys]-Phe[4-(2-aminoethoxy)]-[2-Nal]-[a-MeLys]-[Lys(Ac)]-N-[THP]-NH2; cyclized: Cys-aMeCys disulfide bond) [Compound No. 120]
39,,Ac-[Pen]NT[Trp(7-Me)]K(Ac)[Pen][AEF][2Nal][αMeK]K(Ac)N[αMeF][dPhe(3-NH2)]-NH2 (disulfide 1-6; SMILES CC(=O)NCCCC[C@@H]1NC(=O)[C@H](Cc2c[nH]c3c(C)cccc23)NC(=O)[C@H]([C@@H](C)O)NC(=O)[C@H](CC(N)=O)NC(=O)[C@@H](NC(C)=O)C(C)(C)SSC(C)(C)[C@@H](C(=O)N[C@@H](Cc2ccc(OCCN)cc2)C(=O)N[C@@H](Cc2ccc3ccccc3c2)C(=O)N[C@@](C)(CCCCN)C(=O)N[C@@H](CCCCNC(C)=O)C(=O)N[C@@H](CC(N)=O)C(=O)N[C@@](C)(Cc2ccccc2)C(=O)N[C@H](Cc2cccc(N)c2)C(N)=O)NC1=O) [Compound No. 115]
5.3,,CNTXQCFXKKNF (Ac-[Cys]-N-T-[W(7-Me)]-Q-[aMeCys]-Phe[4-(2-aminoethoxy)]-[2-Nal]-[a-MeLys]-[Lys(Ac)]-N-[a-MePhe]-NH2; cyclized: Cys-aMeCys disulfide bond) [Compound No. 119]
30,,Ac-CNT[Trp(7-Me)]K(Ac)[αMeC][AEF][2Nal][αMeK]K(Ac)N[αMeF]-NH2 (disulfide 1-6; SMILES CC(=O)NCCCC[C@@H]1NC(=O)[C@H](Cc2c[nH]c3c(C)cccc23)NC(=O)[C@H]([C@@H](C)O)NC(=O)[C@H](CC(N)=O)NC(=O)[C@@H](NC(C)=O)CSSC[C@@](C)(C(=O)N[C@@H](Cc2ccc(OCCN)cc2)C(=O)N[C@@H](Cc2ccc3ccccc3c2)C(=O)N[C@@](C)(CCCCN)C(=O)N[C@@H](CCCCNC(C)=O)C(=O)N[C@@H](CC(N)=O)C(=O)N[C@@](C)(Cc2ccccc2)C(N)=O)NC1=O) [Compound No. 118]
20,,Ac-[Pen]NT[Trp(7-Me)]K(Ac)[Pen][AEF][2Nal][αMeK]K(Ac)N[αMeF][3Pal]-NH2 (disulfide 1-6; SMILES CC(=O)NCCCC[C@@H]1NC(=O)[C@H](Cc2c[nH]c3c(C)cccc23)NC(=O)[C@H]([C@@H](C)O)NC(=O)[C@H](CC(N)=O)NC(=O)[C@@H](NC(C)=O)C(C)(C)SSC(C)(C)[C@@H](C(=O)N[C@@H](Cc2ccc(OCCN)cc2)C(=O)N[C@@H](Cc2ccc3ccccc3c2)C(=O)N[C@@](C)(CCCCN)C(=O)N[C@@H](CCCCNC(C)=O)C(=O)N[C@@H](CC(N)=O)C(=O)N[C@@](C)(Cc2ccccc2)C(=O)N[C@@H](Cc2cccnc2)C(N)=O)NC1=O) [Compound No. 116]
12,,Ac-[Pen]NT[Trp(7-Me)]K(Ac)[Pen][AEF][2Nal][αMeK]K(Ac)N[αMeF][dPhe(4-NH2)]-NH2 (disulfide 1-6; SMILES CC(=O)NCCCC[C@@H]1NC(=O)[C@H](Cc2c[nH]c3c(C)cccc23)NC(=O)[C@H]([C@@H](C)O)NC(=O)[C@H](CC(N)=O)NC(=O)[C@@H](NC(C)=O)C(C)(C)SSC(C)(C)[C@@H](C(=O)N[C@@H](Cc2ccc(OCCN)cc2)C(=O)N[C@@H](Cc2ccc3ccccc3c2)C(=O)N[C@@](C)(CCCCN)C(=O)N[C@@H](CCCCNC(C)=O)C(=O)N[C@@H](CC(N)=O)C(=O)N[C@@](C)(Cc2ccccc2)C(=O)N[C@H](Cc2ccc(N)cc2)C(N)=O)NC1=O) [Compound No. 114]
